In US20110118447A1:
Where a chain is given by its changes, count along the chain named. In names and notes the source's numbering stands. Blank lines part the entries; values can stand above or below the binder they belong to.

Target: binding partner of C5A (XPA23)
Assay: Biacore K-off

B3: C5A (XPA23) VL S53R (antibody, V domains shown)
VH: EVQLLESGGGLVQPGGSLRLSCAASGFTFSKYFMFWVRQAPGKGLEWVSVISPSGGMTRYADSVKGRFTISRDNSKNTLYLQMNSLRAEDTAVYYCARVGYGGNSDYWGQGTLVTVSS
VL: DIQMTQSPSSVSASVGDRLTIICRASQDINRWLAWYQQTPGNAPKLLIHSATRLQSGVPSRFSGSGSGTDFTLTINSLQPEDFATYYCQQADSFPLTFGGGTKVEIK
- fold difference in affinity vs original: 3.29 fold

B4: C5A (XPA23) VL H49N (antibody, V domains shown)
VH: B3 VH
VL: B3 VL with H49N, R53S
- fold difference in affinity vs original: 0.31 fold

B7: C5A (XPA23) VL R31D (antibody, V domains shown)
VH: B3 VH
VL: B3 VL with R31D, R53S
- fold difference in affinity vs original: 11.1 fold

B9: C5A (XPA23) VL T52Y (antibody, V domains shown)
VH: B3 VH
VL: B3 VL with T52Y, R53S
- fold difference in affinity vs original: 1.01 fold

B10: C5A (XPA23) VL A51T (antibody, V domains shown)
VH: B3 VH
VL: B3 VL with A51T, R53S
- fold difference in affinity vs original: 0.76 fold

B11: C5A (XPA23) VL H49Y (antibody, V domains shown)
VH: B3 VH
VL: B3 VL with H49Y, R53S
- fold difference in affinity vs original: 0.52 fold

B14: C5A (XPA23) VL H49R (antibody, V domains shown)
VH: B3 VH
VL: B3 VL with H49R, R53S
- fold difference in affinity vs original: 0.21 fold

B16: C5A (XPA23) VL H49D (antibody, V domains shown)
VH: B3 VH
VL: B3 VL with H49D, R53S
- fold difference in affinity vs original: 0.11 fold

B18: C5A (XPA23) VL T52Q (antibody, V domains shown)
VH: B3 VH
VL: B3 VL with T52Q, R53S
- fold difference in affinity vs original: 0.83 fold

B19: C5A (XPA23) VL R31N (antibody, V domains shown)
VH: B3 VH
VL: B3 VL with R31N, R53S
- fold difference in affinity vs original: 0.38 fold

B21: C5A (XPA23) VL R31Q (antibody, V domains shown)
VH: B3 VH
VL: B3 VL with R31Q, R53S
- fold difference in affinity vs original: 0.27 fold

B22: C5A (XPA23) VL T52D (antibody, V domains shown)
VH: B3 VH
VL: B3 VL with T52D, R53S
- fold difference in affinity vs original: 0.72 fold

B24: C5A (XPA23) VL A51S (antibody, V domains shown)
VH: B3 VH
VL: B3 VL with A51S, R53S
- fold difference in affinity vs original: 0.95 fold

B25: C5A (XPA23) VL S50K (antibody, V domains shown)
VH: B3 VH
VL: B3 VL with S50K, R53S
- fold difference in affinity vs original: 0.1 fold

B26: C5A (XPA23) VL T52H (antibody, V domains shown)
VH: B3 VH
VL: B3 VL with T52H, R53S
- fold difference in affinity vs original: 0.91 fold

B27: C5A (XPA23) VL T52S (antibody, V domains shown)
VH: B3 VH
VL: B3 VL with T52S, R53S
- fold difference in affinity vs original: 0.78 fold

B28: C5A (XPA23) VL A51E (antibody, V domains shown)
VH: B3 VH
VL: B3 VL with A51E, R53S
- fold difference in affinity vs original: 0.29 fold

B29: C5A (XPA23) VL S50N (antibody, V domains shown)
VH: B3 VH
VL: B3 VL with S50N, R53S
- fold difference in affinity vs original: 0.25 fold

B30: C5A (XPA23) VL A51H (antibody, V domains shown)
VH: B3 VH
VL: B3 VL with A51H, R53S
- fold difference in affinity vs original: 0.61 fold

B31: C5A (XPA23) VL T52R (antibody, V domains shown)
VH: B3 VH
VL: B3 VL with T52R, R53S
- fold difference in affinity vs original: 3.37 fold

B33: C5A (XPA23) VL T52K (antibody, V domains shown)
VH: B3 VH
VL: B3 VL with T52K, R53S
- fold difference in affinity vs original: 3.23 fold

B34: C5A (XPA23) VL S53Y (antibody, V domains shown)
VH: B3 VH
VL: B3 VL with R53Y
- fold difference in affinity vs original: 1.23 fold

B35: C5A (XPA23) VL S53E (antibody, V domains shown)
VH: B3 VH
VL: B3 VL with R53E
- fold difference in affinity vs original: 1.13 fold

B36: C5A (XPA23) VL A91D (antibody, V domains shown)
VH: B3 VH
VL: B3 VL with R53S, A91D
- fold difference in affinity vs original: 1.08 fold

B37: C5A (XPA23) VL S50H (antibody, V domains shown)
VH: B3 VH
VL: B3 VL with S50H, R53S
- fold difference in affinity vs original: 0.05 fold

B38: C5A (XPA23) VL A51Q (antibody, V domains shown)
VH: B3 VH
VL: B3 VL with A51Q, R53S
- fold difference in affinity vs original: 0.24 fold

B39: C5A (XPA23) VL S50T (antibody, V domains shown)
VH: B3 VH
VL: B3 VL with S50T, R53S
- fold difference in affinity vs original: 0.87 fold

B40: C5A (XPA23) VL T52N (antibody, V domains shown)
VH: B3 VH
VL: B3 VL with T52N, R53S
- fold difference in affinity vs original: 0.83 fold

B41: C5A (XPA23) VL S50E (antibody, V domains shown)
VH: B3 VH
VL: B3 VL with S50E, R53S
- fold difference in affinity vs original: 0.02 fold

B42: C5A (XPA23) VL S50Y (antibody, V domains shown)
VH: B3 VH
VL: B3 VL with S50Y, R53S
- fold difference in affinity vs original: 0.05 fold

B46: C5A (XPA23) VL A51N (antibody, V domains shown)
VH: B3 VH
VL: B3 VL with A51N, R53S
- fold difference in affinity vs original: 0.3 fold

Continued, values first:

- fold difference in affinity vs original: 1.4 fold
B1: C5A (XPA23) VL N30Y (antibody, V domains shown)
VH: B3 VH
VL: B3 VL with N30Y, R53S

- fold difference in affinity vs original: 1.23 fold
B2: C5A (XPA23) VL S53N (antibody, V domains shown)
VH: B3 VH
VL: B3 VL with R53N

- fold difference in affinity vs original: 0.18 fold
B5: C5A (XPA23) VL A51R (antibody, V domains shown)
VH: B3 VH
VL: B3 VL with A51R, R53S

- fold difference in affinity vs original: 0.21 fold
B6: C5A (XPA23) VL S50Q (antibody, V domains shown)
VH: B3 VH
VL: B3 VL with S50Q, R53S

- fold difference in affinity vs original: 0.14 fold
B8: C5A (XPA23) VL H49S (antibody, V domains shown)
VH: B3 VH
VL: B3 VL with H49S, R53S

- fold difference in affinity vs original: 0.24 fold
B12: C5A (XPA23) VL R31T (antibody, V domains shown)
VH: B3 VH
VL: B3 VL with R31T, R53S

- fold difference in affinity vs original: 0.61 fold
B13: C5A (XPA23) VL T52E (antibody, V domains shown)
VH: B3 VH
VL: B3 VL with T52E, R53S

- fold difference in affinity vs original: 4.07 fold
B15: C5A (XPA23) VL S53K (antibody, V domains shown)
VH: B3 VH
VL: B3 VL with R53K

- fold difference in affinity vs original: 1.18 fold
B17: C5A (XPA23) VL R31K (antibody, V domains shown)
VH: B3 VH
VL: B3 VL with R31K, R53S

- fold difference in affinity vs original: 0.44 fold
B20: C5A (XPA23) VL R31S (antibody, V domains shown)
VH: B3 VH
VL: B3 VL with R31S, R53S

- fold difference in affinity vs original: 0.1 fold
B23: C5A (XPA23) VL H49K (antibody, V domains shown)
VH: B3 VH
VL: B3 VL with H49K, R53S

- fold difference in affinity vs original: 0.95 fold
B32: C5A (XPA23) VL S53T (antibody, V domains shown)
VH: B3 VH
VL: B3 VL with R53T

- fold difference in affinity vs original: 0.13 fold
B43: C5A (XPA23) VL A51D (antibody, V domains shown)
VH: B3 VH
VL: B3 VL with A51D, R53S

- fold difference in affinity vs original: 1.09 fold
B44: C5A (XPA23) VL S53Q (antibody, V domains shown)
VH: B3 VH
VL: B3 VL with R53Q

- fold difference in affinity vs original: 0.45 fold
B45: C5A (XPA23) VL A51Y (antibody, V domains shown)
VH: B3 VH
VL: B3 VL with A51Y, R53S
